From the Immune Epitope Database (IEDB)

Assays:
HLA-A*02:01 [1] = experiment: IEDB peptide-MHC binding, purified MHC/competitive/fluorescence; filed as Kd, often an IC50 or EC50 that approximates it; ≥ and ≤ were set here for values at or beyond the usual limits of such assays
HLA-A*02:19 [2] = experiment: as above
HLA-A*03:01 [3] = experiment: as above
HLA-A*26:01 [4] = experiment: as above
HLA-A*29:02 [5] = experiment: as above
HLA-B*15:01 = experiment: as above
HLA-B*18:01 = experiment: as above
HLA-B*27:03 = experiment: as above
HLA-B*46:01 = experiment: as above
HLA-B*51:01 = experiment: as above
HLA-B*57:01 = experiment: as above
HLA-A*02:01 [6] = experiment: IEDB peptide-MHC binding, purified MHC/competitive/radioactivity; filed as Kd, often an IC50 or EC50 that approximates it; ≥ and ≤ were set here for values at or beyond the usual limits of such assays
HLA-A*02:17 = experiment: as above
HLA-A*02:12 = experiment: IEDB peptide-MHC binding, purified MHC/direct/fluorescence; filed as Kd, often an IC50 or EC50 that approximates it; ≥ and ≤ were set here for values at or beyond the usual limits of such assays; settings: source organism: Zaire ebolavirus
HLA-A*02:19 [7] = experiment: as above; settings: source organism: Zaire ebolavirus
HLA-A*03:01 [8] = experiment: as above; settings: source organism: Sudan ebolavirus - Maleo (1979)
HLA-A*23:01 = experiment: as above; settings: source organism: Zaire ebolavirus
HLA-A*24:03 = experiment: as above; settings: source organism: Zaire ebolavirus
HLA-A*29:02 [9] = experiment: as above; settings: source organism: Zaire ebolavirus
HLA-A*31:01 = experiment: IEDB peptide-MHC binding, purified MHC/competitive/fluorescence; filed as Kd, often an IC50 or EC50 that approximates it; ≥ and ≤ were set here for values at or beyond the usual limits of such assays; settings: source organism: Zaire ebolavirus
HLA-A*69:01 = experiment: as above; settings: source organism: Zaire ebolavirus
HLA-B*15:17 = experiment: as above; settings: source organism: Zaire ebolavirus
HLA-B*39:01 = experiment: as above; settings: source organism: Zaire ebolavirus
HLA-A*02:03 = experiment: IEDB peptide-MHC binding, purified MHC/competitive/radioactivity; filed as Kd, often an IC50 or EC50 that approximates it; ≥ and ≤ were set here for values at or beyond the usual limits of such assays; settings: source organism: Dengue virus 4 Philippines/H241/1956
HLA-A*02:06 = experiment: as above; settings: source organism: Dengue virus 4 Philippines/H241/1956
HLA-A*26:01 [10] = experiment: as above; settings: source organism: Dengue virus 4 Philippines/H241/1956
[11] = source organism: Mycobacterium tuberculosis variant bovis BCG str. Pasteur 1173P2
[12] = source organism: Zaire ebolavirus
[13] = source organism: Dengue virus 1 Singapore/S275/1990
[14] = source organism: Dengue virus 4 Philippines/H241/1956
[15] = source organism: Campylobacter jejuni subsp. jejuni NCTC 11168 = ATCC 700819

Work on HLTRVGPYL yielded a Kd (HLA-A*02:01 [1]; [11]) of 0.0024 µM, a Kd (HLA-A*02:19 [2]; [11]) of 1.03 µM and a Kd (HLA-A*03:01 [3]; [11]) of at least 20 µM. It also gave a Kd (HLA-A*26:01 [4]; [11]) of at least 20 µM, a Kd (HLA-A*29:02 [5]; [11]) of at least 20 µM and a Kd (HLA-B*15:01; [11]) of at least 20 µM. For the same sequence, the Kd (HLA-B*18:01; [11]) was at least 20 µM, the Kd (HLA-B*27:03; [11]) was at least 20 µM and the Kd (HLA-B*46:01; [11]) was at least 20 µM. It also gave a Kd (HLA-B*51:01; [11]) of at least 20 µM and a Kd (HLA-B*57:01; [11]) of at least 20 µM.
Work on RKSAPSTGGV yielded a Kd (HLA-A*02:01 [6]; source organism: Homo sapiens) of at least 38.7 µM and a Kd (HLA-A*02:17; source organism: Homo sapiens) of at least 20.6 µM.
In the case of TSACGIFLK, the Kd (HLA-A*02:12) is reported as at least 20 µM, the Kd (HLA-A*02:19 [7]) is reported as at least 20 µM and the Kd (HLA-A*03:01 [8]) is reported as 1.1 µM. The Kd (HLA-A*23:01) was at least 20 µM, the Kd (HLA-A*24:03) was at least 20 µM and the Kd (HLA-A*29:02 [9]) was at least 20 µM. For the same sequence, the Kd (HLA-A*02:01 [1]; [12]) was at least 20 µM, the Kd (HLA-A*26:01 [4]; [12]) was at least 20 µM and the Kd (HLA-A*31:01) was at least 20 µM. For the same sequence, the Kd (HLA-A*69:01) was at least 20 µM, the Kd (HLA-B*15:01; [12]) was at least 20 µM and the Kd (HLA-B*15:17) was at least 20 µM. The Kd (HLA-B*18:01; [12]) was at least 20 µM, the Kd (HLA-B*27:03; [12]) was at least 20 µM and the Kd (HLA-B*39:01) was at least 20 µM. The Kd (HLA-B*46:01; [12]) was at least 20 µM, the Kd (HLA-B*51:01; [12]) was at least 20 µM and the Kd (HLA-B*57:01; [12]) was at least 20 µM.
LLENDMKFTV gave a Kd (HLA-A*02:01 [6]; [13]) of 0.00576 µM and a Kd (HLA-A*02:17; [13]) of 0.115 µM.
GLFGKTQVGV gave a Kd (HLA-A*02:01 [6]; [14]) of 0.00621 µM, a Kd (HLA-A*02:03) of 0.00055 µM and a Kd (HLA-A*02:17; [14]) of 2.76 µM.
Work on LLYYWVHLF yielded a Kd (HLA-A*29:02 [5]; source organism: Bacillus thuringiensis str. Al Hakam) of 0.022 µM.
Sequence LLVKLALITV has a Kd (HLA-A*02:01 [6]; [14]) of 0.0176 µM, a Kd (HLA-A*02:03) of 0.00018 µM and a Kd (HLA-A*02:06) of 0.769 µM. The Kd (HLA-A*02:17; [14]) was 6.7 µM.
LLAGFMAYM was tested, and the Kd (HLA-A*02:01 [6]; [14]) was 0.0047 µM, the Kd (HLA-A*02:03) was 0.0685 µM and the Kd (HLA-A*02:17; [14]) was 0.00197 µM. It also gave a Kd (HLA-A*26:01 [10]) of 1.21 µM.
AVGFFPTGV showed a Kd (HLA-A*02:01 [1]; [15]) of 0.0022 µM, a Kd (HLA-A*02:19 [2]; [15]) of 0.103 µM and a Kd (HLA-A*03:01 [3]; [15]) of at least 20 µM. It also gave a Kd (HLA-A*26:01 [4]; [15]) of at least 20 µM, a Kd (HLA-A*29:02 [5]; [15]) of 0.351 µM and a Kd (HLA-B*15:01; [15]) of at least 20 µM. For the same sequence, the Kd (HLA-B*18:01; [15]) was at least 20 µM, the Kd (HLA-B*27:03; [15]) was at least 20 µM and the Kd (HLA-B*46:01; [15]) was at least 20 µM. It also gave a Kd (HLA-B*51:01; [15]) of at least 20 µM and a Kd (HLA-B*57:01; [15]) of at least 20 µM.
